The results in this text go back to patent publication US20200262895A1 (Biogen, published 2020).

Where two headings read alike, the source gives them in different places.

For assay [1], the target named is T1, normal tau in wild type mouse brain (Wt) (mouse, UniProt P10637-2 1-430, limits assumed).
T1 construct: Control tissue in immunohistochemistry
The assay is described as follows: immunohistochemistry on brain tissue sections.

Assay [2] has as its target T2, recombinant human tau, isoform Tau-F of 441 aa (hTau40) (human, UniProt P10636 1-758).
T2 construct: Bought from rPeptide (Bogart, GA, USA); coated on ELISA plates, blotted, or spotted as overlapping peptides; also called full-length tau; rTau
The assay is described as follows: direct ELISA, hTau40 coated at 3 ug/ml. An excerpt:
(§1) The EC₅₀ values were estimated by a non-linear regression using GraphPad Prism software.
(In an ELISA, binding on a coated surface is turned into a signal by an enzyme label.)

The target in assay [3] is T1, normal tau in wild type mouse brain (Wt). Kind of assay: immunohistochemistry on brain tissue.
The target in assay [4] is T2, recombinant human tau, isoform Tau-F of …. Kind of assay: direct ELISA on coated recombinant tau (rTau).
The target in assay [5] is T3, PHFTau (paired helical filaments containing pathologically phosphorylated tau filaments, extracted from AD … (human, UniProt P10636-8 1-441, limits assumed, pathologically phosphorylated (sites of the preparation not listed), aggregated filaments)).
T3 construct: Brain extract, not a single defined isoform; also called human PHF tau; pathologically modified PHFTau
T3 sequence (P10636 other isoform, or with tags, fused parts or gaps limits assumed): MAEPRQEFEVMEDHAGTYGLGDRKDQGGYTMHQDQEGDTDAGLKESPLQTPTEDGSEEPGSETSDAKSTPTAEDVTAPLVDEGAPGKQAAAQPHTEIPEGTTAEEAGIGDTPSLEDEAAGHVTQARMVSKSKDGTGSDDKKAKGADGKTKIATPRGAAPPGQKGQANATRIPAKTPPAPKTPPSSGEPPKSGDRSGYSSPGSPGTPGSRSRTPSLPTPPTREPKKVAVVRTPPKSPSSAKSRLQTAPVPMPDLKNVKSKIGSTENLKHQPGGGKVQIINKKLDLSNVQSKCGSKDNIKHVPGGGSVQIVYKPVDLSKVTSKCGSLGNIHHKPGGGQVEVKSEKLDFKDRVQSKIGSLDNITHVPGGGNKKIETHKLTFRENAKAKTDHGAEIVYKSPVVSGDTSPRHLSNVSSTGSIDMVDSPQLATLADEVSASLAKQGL
The assay is described as follows: direct ELISA on coated PHFTau.

The target in assay [6] is T2, recombinant human tau, isoform Tau-F of …. The assay is described as follows: ELISA on recombinant Tau, absorbance at 450 nm.
Assay [7] shares this target. Kind of assay: ELISA on recombinant Tau, absorbance at 450 nm. This is another data set of the same source.
Assay [8] shares this target. The assay is described as follows: direct ELISA, hTau40 coated at 1 ug/ml. How it is done: as §1
ELISA plates were coated with recombinant human tau (hTau40, 1 ug/ml), PHFTau (1:100) and control preparation (1:100), and incubated with varying antibody concentrations.

For assay [9] the target is unchanged. The assay is described as follows: binding of CHO-produced antibody to recombinant tau; format not stated.

T1 sequence (P10637 other isoform, or with tags, fused parts or gaps limits assumed): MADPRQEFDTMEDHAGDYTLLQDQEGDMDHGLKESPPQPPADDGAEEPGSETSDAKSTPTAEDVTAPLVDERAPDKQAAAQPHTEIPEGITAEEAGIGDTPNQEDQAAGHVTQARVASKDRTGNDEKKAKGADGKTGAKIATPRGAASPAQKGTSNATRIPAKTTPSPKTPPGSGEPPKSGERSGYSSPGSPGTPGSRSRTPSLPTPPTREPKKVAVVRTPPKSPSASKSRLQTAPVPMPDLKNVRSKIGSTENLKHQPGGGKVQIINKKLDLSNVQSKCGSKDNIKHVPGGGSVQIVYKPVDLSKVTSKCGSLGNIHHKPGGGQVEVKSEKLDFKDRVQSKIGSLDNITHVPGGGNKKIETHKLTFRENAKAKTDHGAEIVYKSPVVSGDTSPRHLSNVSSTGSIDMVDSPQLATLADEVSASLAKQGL
T2 sequence (P10636 other isoform, or with tags, fused parts or gaps limits assumed): as the sequence (P10636 other isoform, or with tags, fused parts or gaps limits assumed) above

B1: recombinant human antibody NI-105.40E8 (NI-105.40E8-hIgG1, germlined) (antibody, V domains shown)
VH: EVQLVESGGGLVQPGGSLRLSCAASGFTFPNYVMTWVRQAPGKGLEWVSGISGSGGSTDYADSVKGRFTISRDNSKNTLYLQMNSLRVEDTALYYCAKGSGGIRGQGTMVTVSS
VL: QSALTQPRSVSGSPGQSVTISCTGTSSDVGGYNYVSWHQQHPGKAPKLLIYDVTKRPSGVPDRFSGSKSGNTAALTISGLQAEDEADYYCHSYVGSYTLVFGGGTKLTVLG
notes: Heavy chain is human IgG1
As to B1, the binding result in assay [1] is reported as “no binding”.

B2: recombinant human antibody NI-105.24B2 (antibody, V domains shown)
VH: EVQLVQSGAEVKKPGASVKVSCKASGYTFVNYIIHWVRQAPGQGLEWMGIINPNGGNTSYAEKFQARVTLTSDTSTSTVYMDLSSLTSEDTAVYYCAVLSPSNPWGQGTTVTVSS
VL: SYVLTQPPSVSVSPGQTAGITCSGDALPKQFVYWYQKKPGQAPVLLIYKDTERPSRIPERFSGSTSGTTVALTINGVQAEDEADYYCQSADRSGALWVFGGGTKLTVL
notes: Human antibody described in US 2012/0087861; used as cloned
For the molecule B2, in assay [2], the EC50 – broadly, the concentration needed to bring the measured effect to its halfway point – was 6.6 nM.

B3: recombinant human antibody NI-105.48E5 (germlined) (antibody, V domains shown)
VH: EVQLVESGGGLVQPGGSLKLSCAASGFTFSGSAMHWVRQASGKGLEWVGRIRSKANSYATAYAASVKGRFTISRDDSKNTAYLQMNSLKTEDTAVYYCTSPTVTTEVWGQGTLVTVSS
VL: not shown
notes: Complete recombinant human IgG1 by the methods
Take B3: the binding result in assay [1] is “no binding”.

B4: recombinant human antibody NI-105.6C5 (germlined) (antibody, human IgG1, V domains shown)
VH: QVQLVESGGGVVQPGRSLRVSCAASGFTFSSYDMHWVRQAPGKGLEWVAVIWFDGSNEFYADSVKGRFTISRDNSKNTLFLQMNSLRAEDTAVYYCARDLGASVTTSNAENFHHWGQGTLVTVSS
VL: SYELTQPPSVSVSPGQTARITCSGDALPKRYVYWYQQKSGQAPVLVIYEDSKRPSGIPETFSGSSSGTMATLTISGAQVEDEADYYCYSTDSNGHHWVFGGGTKLTVL
With B4, in [3], the binding result is given as “no binding”. Also, the EC50 in assay [4] is 0.033 nM; in assay [5], 0.04 nM.

B5: ch17C1(N31Q) mIgG2a (antibody)
heavy: EVQLVQSGAEVKKPGESLKISCKAFGYSFTNFWIGWVRQVPGKGLEWVGIIYPGDSDTRYSPSFQGQVTISADKSIDTAYLQWGHLKASDSAMYFCARRGFWTGSQIEYWGQGTQVTVSSAKTTAPSVYPLAPVCGDTTGSSVTLGCLVKGYFPEPVTLTWNSGSLSSGVHTFPAVLQSDLYTLSSSVTVTSSTWPSQSITCNVAHPASSTKVDKKIEPRGPTIKPCPPCKCPAPNLLGGPSVFIFPPKIKDVLMISLSPIVTCVVVDVSEDDPDVQISWFVNNVEVHTAQTQTHREDYNSTLRVVSALPIQHQDWMSGKEFKCKVNNKDLPAPIERTISKPKGSVRAPQVYVLPPPEEEMTKKQVTLTCMVTDFMPEDIYVEWTNNGKTELNYKNTEPVLDSDGSYFMYSKLRVEKKNWVERNSYSCSVVHEGLHNHHTTKSFSRTPGK
light: QSALTQPPSASGSPGHSVTISCTGTSSDVGQYSFVSWYQQYPGKAPKIIIYDVSKRSSGVPDRFFGSKSANTASLTVSGVQEEDEADYFCSSYGGSKYPWVFGGGTKLTVLGQPKSSPSVTLFPPSSEELETNKATLVCTITDFYPGVVTVDWKVDGTPVTQGMETTQPSKQSNNKYMASSYLTLTARAWERHSSYSCQVTHEGHTVEKSLSRADCS
For the molecule B5, the 50% effective concentration (EC50 (read off the curve)) (in general, the concentration giving half of the maximal effect) in assay [6] is about 0.8 µg/mL; in assay [7] it was about 0.3 µg/mL.

B6: recombinant human antibody NI-105.4E4 (antibody, V domains shown)
VH: EVQLVESGGGLVQPGGSLKLSCAASGFNFNISAIHWVRQASGKGLEWVGRIRSKSHNYATLYAASLKGRFTLSRDDSRNTAYLQMSSLQTEDMAVYYCTVLSANYDTFDYWGQGTLVTVSS
VL: LPVLTQPPSVSVSPGQTARISCFGDTLPKQYTYWYQQKPGQAPVLVIYKDTERPSGIPERFSGSSSGTTVTLTISGVQAEDEADYYCLSADNSATWVFGGGTKVTVL
modifications: Asn-30 of the VH carried an N-glycan when the chimeric ch4E4 was expressed in CHO cells; the letter is unchanged.
notes: Human antibody described in US 2012/0087861
With B6, the EC50 in assay [8] stood at 2.4 nM.

B7: chimeric NI-105.4E4(N30Q) (ch4E4(N30Q)), mouse IgG2a/lambda (antibody, V domains shown)
VH: EVQLVESGGGLVQPGGSLKLSCAASGFNFQISAIHWVRQASGKGLEWVGRIRSKSHNYATLYAASLKGRFTLSRDDSRNTAYLQMSSLQTEDMAVYYCTVLSANYDTFDYWGQGTLVTVSS
VL: SYELTQPPSVSVSPGQTARISCFGDTLPKQYTYWYQQKPGQAPVLVIYKDTERPSGIPERFSGSSSGTTVTLTISGVQAEDEADYYCLSADNSATWVFGGGTKVTVLG
notes: Only the heavy chain of ch4E4 was changed (Asn-30 to Gln)
Consider B7, for which the “fold higher apparent binding affinity relative to the original, glycosylated antibody (ch4E4)” value in assay [9] was about 4 fold.

B8: recombinant human antibody NI-105.4A3 (antibody, V domains shown)
VH: EVQLVETGGGAVQPGGSLRLSCAASGFTFSDYAMHWVRQAPGKGLQWVAVISYEGTYKYYADSVKGRFTISRDNSKNTLNLQMSSLRVEDTAVYFCVKARAFASGQRSTSTVPDYWGQGTLVTVSS
VL: SYELTQPPSVSVSPGQTARITCSGDALPKKYAYWYQQKSGQAPVLVIYEDNKRPSGIPERFSGSSSGTVATLTISGAQVDDEADYYCYSTDISGDLRVFGGGTKLTVL
notes: as for B2
On to B8, for which the EC50 in assay [8] was determined as 1.4 nM.
